According to patent publication US11453711B2, “Fusion proteins of GLP-1 and GDF15 and conjugates thereof” (BEIJING QL BIOPHARMACEUTICAL CO., LTD., priority 2019, dated 2022):
Like-named read-outs stand apart in the source and are kept apart here.

Assays:
[1] = Pharmacokinetic measurement in mouse, single sc dose 30 nmol/kg, plasma ELISA
[2] = Body weight and food intake in C57BL/6 mice, fusion protein conjugates, 30 nmol/kg daily 10 days; type: in vivo
Method in brief: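 Male C57BL/6 mice received fusion protein conjugates by daily subcutaneous injection, with dosing running from Day 1 to Day 10. Body weight was recorded daily per animal and food intake daily per group. Body weight reduction was expressed relative to vehicle percent loss from Day 1. Cumulative food intake reduction was expressed as percent decrease versus vehicle.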

[3] = PK study in non-human primates, single sc dose 5 nmol/kg, plasma ELISA; details: monkey, single sc dose 5 nmol/kg
Description: (§1) Plasma samples were collected pre-dose (−5 min), 2 hr, 4 hr, 6 hr, 8 hr, 24 hr, 48 hr, 72 hr, 96 hr, 120 hr, 144 hr, 216 hr, 288 hr, 360 hr, 432 hr and 504 hr after the injection. The concentrations of the fusion protein conjugates in the plasma were measured by an ELISA assay which has immunoreactivity towards both GDF15 and intact N-terminal of GLP-1. Based on the graph showing plasma concentration of each protein versus time after subcutaneous injection, the pharmacokinetic parameters (including Tmax, Cmax, T1/2, AUC) were calculated by WinNonlin software.

[4] = Efficacy in DIO mice, daily sc 28 days; type: in vivo, DIO male C57BL/6 mice
Description: FIGS. 6A-6E show In vivo efficacy in DIO mice. To evaluate the body weight, food intake and glucose effects of the fusion proteins, 17 week old DIO mice (C57BL/6 mice on high fat diet for 13 weeks) were dosed everyday subcutaneously with different concentrations of proteins for 28 days. […] FIGS. 6D and 6E show body weight change with dose titrations of MLC089 and MLC093 at 3, 10 and 30 nmol/kg. Data are expressed as mean values and standard error (SEM) for FIGS. 6A, 6C, 6D and 6E. n=5 for each treatment group. For FIG. 6B, a pooled food intake was measured for each treatment group.
17 week old DIO male C57BL/6 mice (˜45 g) were injected everyday subcutaneously with designated proteins (i.e., MLC089, MLC093) for 28 days. Food intake and body weight were measured daily and five animals were used for each treatment group. Fasting glucose was also monitored on designated days. Body weight and glucose were monitored for each individual animal, but food intake for each group animals was measured together. Day 1 and Day 28 are first day and last day of molecule dosage. % BW loss=100*(BW on Day n-BW on Day 1)/(BW on Day 1). Cumulative food intake on Day n represents sum of food intake from Day 1 to Day n. Terminal blood was collected and EDTA-2K plasma was prepared and frozen at −80 C for biomarker measurement. Liver was also collected and frozen in liquid nitrogen and store at −80 C. Data are indicated as mean values and standard error (SEM) or pooled values.

[5] = Efficacy in db/db mice: body weight, food intake, glucose, biomarkers, daily sc 14 days; type: in vivo
Description: FIGS. 4A-4D show In vivo efficacy in db/db mice. To evaluate the body weight, food intake and glucose effects of the fusion proteins, 8 week old male db/db mice were dosed everyday subcutaneously with 30 nmol/kg protein for 14 days. […] Compared to Vehicle control: ***, p<0.001. Data are expressed as mean values and standard error (SEM) for FIGS. 4A, 4B and 4D. n=5 for each treatment group. For FIG. 4C, a pooled food intake was measured for each treatment group.
FIGS. 5A-5F show In vivo efficacy in db/db mice. To evaluate the body weight, food intake and glucose effects of the fusion proteins, 8 week old male db/db mice were dosed everyday subcutaneously with different concentrations of proteins for 14 days. FIGS. 5A and 5B show body weight loss upon protein treatments from Day1 to Day15. […] Compared to Vehicle control: ***, p<0.001; **, p<0.01; *, p<0.05; ns, non-statistically significant; FIGS. 5D and 5E show cumulative food intake with protein treatments from Day1 to Day15. […] Compared to Vehicle control: ***, p<0.001**, p<0.01; *, p<0.05; ns, non-statistically significant. Data are expressed as mean values and standard error (SEM) for FIGS. 5A, 5B, 5C and 5F. n=5 for each treatment group. For FIGS. 5D and 5E, a pooled food intake was measured for each treatment group.
FIGS. 8A-8I show In vivo efficacy in db/db mice. To evaluate the body weight, food intake and glucose effects of the fusion proteins, 8 week old male db/db mice were dosed everyday subcutaneously with different concentrations of proteins for 14 days. […] FIGS. 8D-8F show body weight loss upon dose titrations of fusion protein conjugates. […] Data are expressed as mean values and standard error (SEM) for FIGS. 8A and 8C-I. n=5 for each treatment group. For FIG. 8B, a pooled food intake was measured for each treatment group.
Selected fusion protein conjugates are assessed in disease animal models (DIO mice, db/db mice, etc.) to determine body weight, food intake, glucose efficacy with dose responses. Some biomarkers are also measured, including fasting insulin, plasma triglyceride, cholesterol, liver triglyceride, and inflammatory biomarkers (ALT, AST and CRP).
8 week old male db/db mice were injected everyday subcutaneously with designated proteins for 14 days. Age matched lean mice were used as control. Food intake and body weight were measured daily and five animals were used for each treatment group. Fasting glucose were tested on designated days as shown in each figure. Body weight was monitored for each individual animal, but food intake for each group animals was measured together. Day 1 and Day 14 are first day and last day of molecule dosage. % BW loss=100*(BW on Day n-BW on Day 1)/(BW on Day 1). Cumulative food intake on Day n represents sum of food intake from Day 1 to Day n. Terminal blood was collected and EDTA-2K plasma was prepared and frozen at −80° C. for biomarker measurement. Liver was also collected and frozen in liquid nitrogen and store at −80° C. Data are indicated as mean values and standard error (SEM) or pooled values. Statistical analysis was performed by One-way ANOVA.

[6] = Additive or synergistic effect: body weight and food intake in C57BL/6 mice, 30 nmol/kg daily sc 10 days; type: in vivo; details: versus negative controls MLC096 and MLC097
Description: FIGS. 7A-7B show In vivo efficacy in C57 lean mice. To evaluate the body weight and food intake effects of the fusion proteins, 10 week old male C57BL/6J mice were dosed everyday subcutaneously with 30 nmol/kg protein for 10 days. Food intake and body weight were measured daily. […] Data are expressed as mean values and standard error (SEM) for FIG. 7A. n=5 for each treatment group. For FIG. 7B, a pooled food intake was measured for each treatment group.
10 week old male C57BL/6 mice were injected everyday subcutaneously with 30 nmol/kg of the unconjugated fusion proteins (i.e., MLC096, MLC097 and MLCO21) for 10 days. Food intake and body weight were measured daily and five animals were used for each treatment group. Body weight (BW) was monitored for each individual animal, but food intake for each group animals was measured together. Day 1 and Day 10 are first day and last day of molecule dosage. % BW loss=100*(BW on Day n-BW on Day 1)/(BW on Day 1). Cumulative food intake on Day n represents sum of food intake from Day 1 to Day n. Data are indicated as mean values and standard error (SEM) or pooled values. Statistical analysis was performed by One-way ANOVA.
As discussed above, MLC096 and MLC097 were used as negative controls, as they contained known inactivating mutation in GDF15 or GLP-1.

[7] = Body weight and food intake in C57BL/6 mice, unconjugated fusion proteins, 30 nmol/kg daily 10 days; type: in vivo
Description: 10 week old male C57BL/6 mice were injected everyday subcutaneously with 15 nmol/kg of the fusion protein conjugates (i.e., MLC002, MLC 004, MLC 005, MLC 006, MLC 007, MLC 008, and MLC 009) for 14 days. Food intake and body weight were measured daily and five animals were used for each treatment group. Body weight (BW) was monitored for each individual animal, but food intake for each group animals was measured together. Day 1 and Day 14 are first day and last day of molecule dosage. % BW loss=100*(BW on Day n-BW on Day 1)/(BW on Day 1). Cumulative food intake on Day n represents sum of food intake from Day 1 to Day n. Data are indicated as mean values and standard error (SEM) or pooled values. Statistical analysis was performed by One-way ANOVA. Body weight reduction on Day 11 is calculated by −1*(% BW loss−% BW loss of vehicle group); Cumulative food intake reduction is calculated by −100*(cumulative food intake-cumulative food intake of vehicle)/cumulative food intake of vehicle.
As described in the above method, a daily dose of 30 nmol/kg of the unconjugated fusion proteins (i.e., MLC100, MLC023, MLC022, MLC020, MLC003, MLC124, MLC021, MLC019, MLC102) were administered to C57BL/6 for 10 days. Data were calculated as above method. Day 1 and Day 10 are first day and last day of administration.

[8] = mouse, in vivo, sc, 30 nmol/kg
[9] = cynomolgus monkey, in vivo, sc, 5 nmol/kg
Description: as §1

[10] = 30 nmol/kg, FIG. 8A-C, versus Semaglutide, Tirzepatide and MLC014
[11] = C57 mice, 30 nmol/kg daily, Day11, unconjugated fusion proteins
[12] = 30 nmol/kg, FIG. 5A-E, versus Semaglutide, Tirzepatide and MLC014

B1: MLC089: fusion polypeptide SEQ ID NO: 379 conjugated with Moiety B at 39C of Linker (conjugate)
chain: HGEGTFTSDVSSYLEEQAAKEFIAWLVRGGGGAQPGAQPGAQPGAQPGAQPGAQPGAQPGAQPGQEPGQCPGQEPGAQPGQEPGAQPGQEPGAQPGQEPGAQPGQEPGAQPARQGDHCPLGPGRCCRLHTVRASLEDLGWADWVLSPREVQVTMCIGACPSQFRAANLHAQIKTSLHRLKPDTVPAPCCVPASYNPMVLIQKTDTGVSLQTYDDLLAKDCHCI
modifications: Moiety B conjugated at linker Cys39
For B1, the Cmax ([1]; read-out: Cmax (nmol/L), single sc dose 30 nmol/kg) was 116 nmol/L, the “AUC0-24 h” value ([1]; single sc dose 30 nmol/kg) was 1.9822 µM·h and the “Terminal t1/2” value ([1]; single sc dose 30 nmol/kg) was 14.7 h. The “Tmax” value ([1]; single sc dose 30 nmol/kg) was 10.7 h, the “Body weight reduction at 30 nmol/kg (% reduction compared to vehicle)(Day11)” value [2] was 24.6% and the “Cumulative food intake reduction at 30 nmol/kg (% reduction compared to vehicle)(Day11)” value [2] was 29.9%. The “AUC0-96 h” value [3] was 3.413 µM·h, the “Terminal t1/2” value [3] was 54 h and the “Tmax” value [3] was 8 h. For the same molecule, the Cmax ([3]; read-out: Cmax (nmol/L)) was 70.5 nmol/L, the “body weight reduction efficacy” value ([4]; DIO mice, 30 nmol/kg daily 28 days, FIG. 6A) was “much better body weight reduction efficacy than Semaglutide and GDF15 derivative (MLC014)” and the “dose dependence of body weight reduction” value ([4]; DIO mice, 3, 10 and 30 nmol/kg, FIGS. 6D and 6E) was “dose dependent efficacy on body weight reduction”. The fasting glucose ([4]; DIO mice, FIG. 6C) was “reached similar level to Semaglutide”, the efficacy ([4]; DIO study, FIG. 6) was “better efficacy than Semaglutide and GDF15 derivative (MLC014)” and the body weight loss [5, 10] was “more body weight loss, food intake suppression and glycemic control”. For the same molecule, the food intake suppression [5, 10] was “more body weight loss, food intake suppression and glycemic control”, the glycemic control [5, 10] was “more body weight loss, food intake suppression and glycemic control” and the efficacy ([5]; FIG. 8 study) was “better efficacy than Semaglutide and GDF15 derivative (MLC014)”.

B2: MLC021: unconjugated GLP-1/GDF15 fusion protein, linker of at least 80 residues (protein)
chain: HGEGTFTSDVSSYLEEQAAKEFIAWLVRGGGGQEPGAQPGQEPGAQPGQEPGAQPGQEPGAQPGQEPGAQPGQEPGAQPGAQPGAQPGAQPGAQPGAQPGAQPGAQPGAQPARQGDHCPLGPGRCCRLHTVRASLEDLGWADWVLSPREVQVTMCIGACPSQFRAANLHAQIKTSLHRLKPDTVPAPCCVPASYNPMVLIQKTDTGVSLQTYDDLLAKDCHCI
For B2, the “body weight reduction efficacy” value [6] was “much better body weight reduction efficacy”, the food intake [6] was “decreased food intake” and the “Body weight reduction at 30 nmol/kg (% reduction compared to vehicle)(Day11)” value [7, 11] was 22.1%. The “Cumulative food intake reduction at 30 nmol/kg (% reduction compared to vehicle)(Day11)” value [7, 11] was 48.7% and the “in vivo efficacy (food intake and body weight reduction)” value ([7]; unconjugated fusion proteins, 30 nmol/kg daily 10 days, by linker length) was “the most significant results among all the tested fusion proteins”.

B3: MLC047: fusion polypeptide SEQ ID NO: 330 conjugated with Moiety A at 40K of linker (conjugate)
chain: HGEGTFTSDVSSYLEEQAAREFIAWLVRGGGGQEPGAQPGQEPGAQPGQEPGAQPGQEPGAQPGQEPGAQKGQEPGAQPGAQPGAQPGAQPGAQPGAQPGAQPGAQPGAQPARQGDHCPLGPGRCCRLHTVRASLEDLGWADWVLSPREVQVTMCIGACPSQFRAANLHAQIKTSLHRLRPDTVPAPCCVPASYNPMVLIQRTDTGVSLQTYDDLLARDCHCI
For B3, the “Tmax” value ([1]; single sc dose 30 nmol/kg) was 10.7 h, the “Body weight reduction at 30 nmol/kg (% reduction compared to vehicle)(Day11)” value [2] was 24.7% and the “Cumulative food intake reduction at 30 nmol/kg (% reduction compared to vehicle)(Day11)” value [2] was 51.2%. The “Tmax” value [3] was 16 h, the “AUC0-24 h” value [8] was 1.2468 µM·h and the Cmax [8] was 71.9 nM. The “Terminal t1/2” value [8] was 9.3 h, the “AUC0-96 h” value [9] was 1.541 µM·h and the body weight loss [5, 12] was “sustainable and much better effect”. For the same molecule, the food intake suppression [5, 12] was “sustainable and much better effect” and the efficacy ([5]; FIG. 5 study) was “better efficacy than Semaglutide and GDF15 derivative (MLC014)”.
